# Source: PMC11191771
# B1: 2G4 RNA (structured_RNA)
# RNA: CAAAAACAAAAACAAAAACAAAAACAAAAAGGGAAGGGAAGGGAAGGGAAACAACAACAACAACAGGGAAGGGAAGGGAAGGGAA
# Experiments:
# [1] = biological target: PRC2.2 six-subunit complex WT (EZH2, SUZ12, EED, RBAP48, AEBP2, JARID2 119-450) (human, UniProt Q15910-2;Q15022;O75530;Q09028;Q6ZN18;Q92833 …); test: EMSA; 100 mM KCl; EMSA: 50 mM Tris-HCl pH 7.5 (25 C), 100 mM KCl, 2.5 mM MgCl2, 0.1 mM ZnCl2, 2 mM 2-mercaptoethanol?; FP: 50 mM Tris pH 7.5, 10 or 25 mM KCl, 2.5 mM MgCl2, 0.1 mM ZnCl2, 0.1 mg/mL BSA?, room temperature, 5 nM RNA or DNA; conditions: protein: recombinant, tags: His-EZH2, Strep-GFP-AEBP2, Strep-GFP-JARID2, TEV protease treated, copies: 1;1;1;1;1;1, label: 5' 32P (EMSA)
# [2] = biological target: T1, PRC2.2 EZH2 R566Y K568Y Q575Y (3Y) (human, UniProt Q15910-2;Q15022;O75530;Q09028;Q6ZN18;Q92833 …, R566Y;K568Y;Q575Y); test: EMSA; higher affinity than WT; EMSA: 50 mM Tris-HCl pH 7.5 (25 C), 100 mM KCl, 2.5 mM MgCl2, 0.1 mM ZnCl2, 2 mM 2-mercaptoethanol?; FP: 50 mM Tris pH 7.5, 10 or 25 mM KCl, 2.5 mM MgCl2, 0.1 mM ZnCl2, 0.1 mg/mL BSA?, room temperature, 5 nM RNA or DNA; conditions: protein: recombinant; tags: as P1; copies: 1;1;1;1;1;1; label: 5' 32P (EMSA); single G-quadruplex
# [3] = biological target: PRC2.2 EZH2 R566A K568A Q575A (human, UniProt Q15910-2;Q15022;O75530;Q09028;Q6ZN18;Q92833 …, R566A;K568A;Q575A); test: EMSA; binding not affected vs WT; EMSA: 50 mM Tris-HCl pH 7.5 (25 C), 100 mM KCl, 2.5 mM MgCl2, 0.1 mM ZnCl2, 2 mM 2-mercaptoethanol?; FP: 50 mM Tris pH 7.5, 10 or 25 mM KCl, 2.5 mM MgCl2, 0.1 mM ZnCl2, 0.1 mg/mL BSA?, room temperature, 5 nM RNA or DNA; conditions: protein: recombinant; tags: as P1; copies: 1;1;1;1;1;1; label: 5' 32P (EMSA); single G-quadruplex
# PRC2.2 EZH2 del353-362 = PRC2.2 EZH2 del353-362 (human, UniProt Q15910-2;Q15022;O75530;Q09028;Q6ZN18;Q92833 …, internal_change); test: EMSA; no obvious reduction vs WT; EMSA: 50 mM Tris-HCl pH 7.5 (25 C), 100 mM KCl, 2.5 mM MgCl2, 0.1 mM ZnCl2, 2 mM 2-mercaptoethanol?; FP: 50 mM Tris pH 7.5, 10 or 25 mM KCl, 2.5 mM MgCl2, 0.1 mM ZnCl2, 0.1 mg/mL BSA?, room temperature, 5 nM RNA or DNA; conditions: protein: recombinant; tags: as P1; copies: 1;1;1;1;1;1; label: 5' 32P (EMSA); single G-quadruplex
# [4] = biological target: T1, PRC2.2 EZH2 R566Y K568Y Q575Y (3Y); test: FP; higher affinity than WT; Kd only in figure; EMSA: 50 mM Tris-HCl pH 7.5 (25 C), 100 mM KCl, 2.5 mM MgCl2, 0.1 mM ZnCl2, 2 mM 2-mercaptoethanol?; FP: 50 mM Tris pH 7.5, 10 or 25 mM KCl, 2.5 mM MgCl2, 0.1 mM ZnCl2, 0.1 mg/mL BSA?, room temperature, 5 nM RNA or DNA; conditions: protein: recombinant; tags: as P1; copies: 1;1;1;1;1;1; label: fluorescent label; single G-quadruplex
binder,measurement,setting,value
B1,Kd,[1]; two G-quadruplexes,32 nM
"CAAAAACAAAAACAAAAACAAAAACAAAAAGGGAAGGGAAGGGAAGGGAA (structured_RNA) [1G4 RNA, no biotin]",Kd,[1]; single G-quadruplex,120 nM
same,binding result,[2],binds
same,binding result,[3],binds
same,binding result,PRC2.2 EZH2 del353-362,binds
CAAAAACAAAAACAAAAACAAAAACAAAAAGGGAAGGGAAGGGAAGGGAA (structured_RNA) [1G4 RNA (FP)],binding result,[4],binds
